Assays:
[1] = Summary of tracer stability in vitro and in vivo
Experimental: Stability of the tracers was determined in PBS and human plasma. In a typical experiment, 1 MBq of radioactivity (10–20 µL) was added to 250 µL of PBS or human plasma. Samples were heated to 37 °C on a shaker and sampled at fixed intervals. For samples containing human plasma, protein was precipitated using two volumes of cold MeCN. Precipitated samples were briefly centrifuged to pellet the insoluble fraction and supernatant was used for stability assessment. Supernatant (1 µL) was loaded on a TLC plate and imaged using BAS-IP MS 2025 E plates (Fujifilm, Tokyo, Japan) on an Amersham Typhoon Biomolecular Imager (GE Healthcare Bio-Sciences Corp, Chicago, United States) equipped with a phosphor imaging stage. [^18F]BODIPY-FL-vancomycin has an Rf of 0.68 (petroleum ether/MeOH 3:1), [^18F]FB-vancomycin has an Rf of 0.66 (2 M NaOAc/MeOH 5:1). For [^18F]PQ-VE1-vancomycin, conditions described in [44] were used.

[2] = Distribution coefficient LogD7.4, shake-flask n-octanol/PBS; assay type: physicochemical; conditions: shake-flask n-octanol/PBS pH 7.4, 500 µL each, 10 µL tracer in saline, vortexed 30 s, shaken 15 min, gamma counter, mean ± SD
Experimental: The tracer distribution coefficient in n-octanol/PBS pH 7.4 (LogD7.4) was determined using a shake-flask methodology. To an Eppendorf tube containing 500 µL n-octanol and 500 µL PBS, 10 µL tracer solution in saline was added. The vial was vortexed for 30 s and placed on an Eppendorf shaker for 15 min. After incubation, layers were separated by centrifugation (1 min at 10.000 rpm) and a fraction of the n-octanol layer was pipetted off. To minimize contamination of the bottom layer with the n-octanol layer, the bottom PBS layer was collected by puncturing the bottom of the Eppendorf tube with a 22G needle and aspirating a fraction of the PBS layer. Collected fractions were weighted to correct for collected volume and subsequently measured on a calibrated gamma counter and corrected for decay. LogD7.4 was calculated as [drawing 1] .

in vivo = conditions: in vivo; for tissue uptake at 0.5 h / tissue uptake at 1 h / tissue uptake at 1.5 h: male, C57BL/6, mouse, 2 MBq, total radioactivity, Biodistribution
Experimental: All murine experiments were approved by the Animal Care and Use Committee of the University of Groningen under license protocol number 2114768-01-001. In vivo biodistribution was performed in male C57BL/6 mice (age 8 weeks, 25 g). Per tracer, the animals were divided in three groups based on the tracer distribution times (30 min, 60 min, and 90 min). […] Each experimental arm (i.e. time point) consisted of three animals. […] Tracer was administered at t = 0 via penile vein injection (2.0 ± 0.9 MBq in 100 µL 0.9% saline solution, Supplemental Table 2). After tracer administration, the animals were transferred to a Siemens Focus 220 microPET small animal scanner (Siemens, Munich, Germany) and scanned for the designated time, followed by a transmission scan of 10 min for attenuation correction. PET data were normalized and corrected for decay, after which the PET data were reconstructed using OSEM2D-Z1-SC-256. The PET data frames used for reconstruction were: 6 × 10 s, 4 × 30 s, 2 × 60 s, 120 s, 180 s, 4 × 300 s, 3 × 600 s, 1200 s or until the designated scan time was reached, taking into account a 10-min transmission scan following the emission scan. Next, animals were terminated, and organs harvested to assay biodistribution in a calibrated gamma counter (Wizard2, Perkin Elmer, Waltham, United States).

Gram-positive bacteria = assay: Tracer binding to test panel of clinically relevant bacteria, Gram-positive; set-up: species or system C. acnes, E. faecalis, S. aureus, S. capitis, S. epidermidis; conditions: summary table
Experimental: Clinical isolates of E. cloacae, S. capitis, S. aureus, as well as type strains of E. coli, E. faecalis, K. pneumoniae, P. aeruginosa and S. epidermidis were grown under aerobic conditions in brain heart infusion broth. A clinical isolate of the anaerobic bacterium C. acnes was grown on plate in an anaerobic chamber, and subsequently cultured in liquid medium with minimal headspace. Samples from fresh bacterial cultures were normalized to an OD600 of 1.0, fixed in PBS with 0.5% paraformaldehyde (PFA) for 10 min at room temperature, and resuspended in 1 mL sterile PBS. The fixated bacteria were incubated with tracer (133 kBq per mL, 42.8 pg and 0.6 pg of [^18F]BODIPY-FL-vancomycin and [^18F]PQ-VE1-vancomycin, respectively) and washed twice with sterile PBS. […] Measurements were corrected for background and decay. Results are reported as percentage of the total tracer added.

Q: For `Cc1cc(C)n2c1C=C1C=CC(CCC(=O)N(C)[C@H](CC(C)C)C(=O)N[C@H]3C(=O)N[C@@H](CC(N)=O)C(=O)N[C@H]4C(=O)N[C@H]5C(=O)N[C@H](C(=O)N[C@H](C(=O)O)c6cc(O)cc(O)c6-c6cc5ccc6O)[C@H](O)c5ccc(c(Cl)c5)Oc5cc4cc(c5O[C@@H]4O[C@H](CO)[C@@H](O)[C@H](O)[C@H]4O[C@H]4C[C@](C)(N)[C@H](O)[C@H](C)O4)Oc4ccc(cc4Cl)[C@H]3O)=[N+]1[B-]2(F)F` [[^18F]BODIPY-FL-vancomycin], which Stability [1] is on record?
A: Stable in vitro and in vivo up to 2 h.

Q: What about the LogD7.4 [2] of the same molecule?
A: -1.72 ± 0.02 (n = 10)

Q: What about the tissue uptake at 0.5 h (in vivo; iv, Bladder) of the same molecule?
A: 4.83 %ID/g

Q: What about the tissue uptake at 1 h (in vivo; iv, Bladder) of the same molecule?
A: 7.62 %ID/g

Q: What about the tissue uptake at 1.5 h (in vivo; iv, Bladder) of the same molecule?
A: 9.43 %ID/g

Q: And the tissue uptake at 0.5 h (in vivo; iv, Bone)?
A: 1.2 %ID/g

Q: And the tissue uptake at 1 h (in vivo; iv, Bone)?
A: 2.71 %ID/g

Q: And the tissue uptake at 1.5 h (in vivo; iv, Bone)?
A: 3.27 %ID/g

Q: What about the tissue uptake at 0.5 h (in vivo; iv, Brain) of the same molecule?
A: 0.05 %ID/g

Q: And the tissue uptake at 1 h (in vivo; iv, Brain)?
A: 0.09 %ID/g

Q: And the tissue uptake at 1.5 h (in vivo; iv, Brain)?
A: 0.05 %ID/g

Q: What about the tissue uptake at 0.5 h (in vivo; iv, Fat) of the same molecule?
A: 0.59 %ID/g

Q: And the tissue uptake at 1 h (in vivo; iv, Fat)?
A: 0.67 %ID/g

Q: And the tissue uptake at 1.5 h (in vivo; iv, Fat)?
A: 0.49 %ID/g

Q: And the tissue uptake at 0.5 h (in vivo; iv, Heart)?
A: 0.96 %ID/g

Q: What about the tissue uptake at 1 h (in vivo; iv, Heart) of the same molecule?
A: 1.25 %ID/g

Q: What about the tissue uptake at 1.5 h (in vivo; iv, Heart) of the same molecule?
A: 0.81 %ID/g

Q: What about the tissue uptake at 0.5 h (in vivo; iv, Kidneys) of the same molecule?
A: 7.77 %ID/g

Q: And the tissue uptake at 1 h (in vivo; iv, Kidneys)?
A: 7.13 %ID/g

Q: What about the tissue uptake at 1.5 h (in vivo; iv, Kidneys) of the same molecule?
A: 7 %ID/g

Q: And the tissue uptake at 0.5 h (in vivo; iv, Large intestine)?
A: 0.93 %ID/g

Q: And the tissue uptake at 1 h (in vivo; iv, Large intestine)?
A: 1.34 %ID/g

Q: What about the tissue uptake at 1.5 h (in vivo; iv, Large intestine) of the same molecule?
A: 0.91 %ID/g

Q: And the tissue uptake at 0.5 h (in vivo; iv, Liver)?
A: 2.27 %ID/g

Q: What about the tissue uptake at 1 h (in vivo; iv, Liver) of the same molecule?
A: 3.47 %ID/g

Q: And the tissue uptake at 1.5 h (in vivo; iv, Liver)?
A: 2.86 %ID/g

Q: What about the tissue uptake at 0.5 h (in vivo; iv, Lungs) of the same molecule?
A: 4.59 %ID/g

Q: And the tissue uptake at 1 h (in vivo; iv, Lungs)?
A: 6.68 %ID/g

Q: What about the tissue uptake at 1.5 h (in vivo; iv, Lungs) of the same molecule?
A: 4.39 %ID/g

Q: And the tissue uptake at 0.5 h (in vivo; iv, Muscle)?
A: 0.42 %ID/g

Q: And the tissue uptake at 1 h (in vivo; iv, Muscle)?
A: 0.66 %ID/g

Q: And the tissue uptake at 1.5 h (in vivo; iv, Muscle)?
A: 0.46 %ID/g

Q: What about the tissue uptake at 0.5 h (in vivo; iv, Plasma) of the same molecule?
A: 2.41 %ID/g

Q: And the tissue uptake at 1 h (in vivo; iv, Plasma)?
A: 3.25 %ID/g

Q: And the tissue uptake at 1.5 h (in vivo; iv, Plasma)?
A: 2.13 %ID/g

Q: And the tissue uptake at 0.5 h (in vivo; iv, Small intestine)?
A: 1.1 %ID/g

Q: And the tissue uptake at 1 h (in vivo; iv, Small intestine)?
A: 2.01 %ID/g

Q: What about the tissue uptake at 1.5 h (in vivo; iv, Small intestine) of the same molecule?
A: 1.89 %ID/g

Q: And the tissue uptake at 0.5 h (in vivo; iv, Spleen)?
A: 1.41 %ID/g

Q: And the tissue uptake at 1 h (in vivo; iv, Spleen)?
A: 3.02 %ID/g

Q: What about the tissue uptake at 1.5 h (in vivo; iv, Spleen) of the same molecule?
A: 2.73 %ID/g

Q: What about the tissue uptake at 0.5 h (in vivo; iv, Stomach) of the same molecule?
A: 1.16 %ID/g

Q: What about the tissue uptake at 1 h (in vivo; iv, Stomach) of the same molecule?
A: 1.59 %ID/g

Q: What about the tissue uptake at 1.5 h (in vivo; iv, Stomach) of the same molecule?
A: 0.98 %ID/g

Q: What about the tissue uptake at 0.5 h (in vivo; iv, Whole blood) of the same molecule?
A: 1.68 %ID/g

Q: And the tissue uptake at 1 h (in vivo; iv, Whole blood)?
A: 1.86 %ID/g

Q: What about the tissue uptake at 1.5 h (in vivo; iv, Whole blood) of the same molecule?
A: 1.1 %ID/g

Q: What about the Accumulation (in vivo; mouse) of the same molecule?
A: Accumulation in liver, kidneys and lungs

Q: What about the Muscle uptake (in vivo; mouse) of the same molecule?
A: Low muscle uptake

Q: And the “Crossing of the blood-brain barrier (BBB)” value (in vivo; mouse, iv)?
A: no substantial signal was observed in the brain

Q: And the “Binding to Gram-positive bacteria in vitro” value (Gram-positive bacteria)?
A: LogD7.4 -1.72. Am 5.35 GBq/µmol. MIC 16 µg/mL. Binding to Gram-positive bacteria in vitro.
